Assay results taken from article PMC12428095.

Experiments:
Details in all cases: EMSA: 20 nM probe, 10 mM Tris-HCl pH 7.5, 50 mM KCl, 10 mM MgCl2, 5% glycerol, 20 min at 4 C, 5% native PAGE in TGE pH 8.3; footprinting: same binding system …
[1] = test system: T1, CopR2 (Pseudomonas putida KT2440), ORF:6041cc23; assay: EMSA
T1 sequence: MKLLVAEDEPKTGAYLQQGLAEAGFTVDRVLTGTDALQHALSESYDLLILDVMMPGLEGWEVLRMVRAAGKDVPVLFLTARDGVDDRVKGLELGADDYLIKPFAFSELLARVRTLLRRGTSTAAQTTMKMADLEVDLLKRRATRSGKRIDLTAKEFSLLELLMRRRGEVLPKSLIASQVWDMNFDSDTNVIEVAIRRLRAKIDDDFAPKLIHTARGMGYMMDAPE

[2] = test system: T2, CopR1 (Pseudomonas putida KT2440), ORF:c26c307e; assay: EMSA
T2 sequence: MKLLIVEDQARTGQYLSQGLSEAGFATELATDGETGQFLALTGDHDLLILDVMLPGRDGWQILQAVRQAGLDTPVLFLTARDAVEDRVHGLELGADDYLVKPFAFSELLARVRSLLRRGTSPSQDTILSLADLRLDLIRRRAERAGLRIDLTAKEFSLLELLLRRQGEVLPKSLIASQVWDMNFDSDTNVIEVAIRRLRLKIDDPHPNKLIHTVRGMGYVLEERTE

[3] = test system: T1, CopR2 (Pseudomonas putida KT2440), ORF:6041cc23; assay: DNase I footprinting
[4] = test system: T2, CopR1 (Pseudomonas putida KT2440), ORF:c26c307e; assay: DNase I footprinting

Measured: binding

CTTTGACAAACGTACGGCGGGAGGGGTTGCGCAACATGGCGAGGCCTCATGCGGAATAGCCACGATGTTCGCTGCCGCCTGCTGTCAGGTAGCTGAGGTGCACATTACAGTGTTGTCAGCTTGCTGCTTCGTCGATGCGCAGGTCGCGCATCAGCAGGCCGTAGTCGAGGGCAACCTGTTCCGGGATCGGCAGATACACCACATGGCCATCGCCCGGTGCGACCTCGATGGCGTGCTGCTACTGGCCGTCGTTTTACA (double strand) [copA1 (copAB1) promoter probe]
binds: all assays above

TCGGTTCATCCTCAGCTACGAGTAGTTTCATGTGCTCAGCTTCCAAAGGTGTACACATCCAGTGTGCAGCAAAAAAAGGAGCTAACCAGAAGCTGACGTAAAAGTAATGTTGGTATCAGCCAGCTGTCAGGGCCTGCCGTCTACGGTCATTGAAGACGGGCATTGCAGTCACGCCTGCCGTTATCGGTAGCAATGGTTTCAACCCCCTGATGGAGAGAGTCCCATGAAATCGATCAGACTTTTGCTTGTGGCTACATCGATGCTGCTGACTGGCCGTCGTTTTACA (double strand) [copR2 (copRS2) promoter probe]
binds: all assays above

TGTAAAACGACGGCCAGTAGCCAGAGCCATAAACACGGGCAGCATGAGAACTGCTGATCCGAGCTTACAGAAATGTAATCACTCGGGAATCTTTTATGTGGCAGTTTCAAATCGCTTTCTCCCACTGTGACTTGCGCTTTCGAGCAAGTCCCTAAGACTTGTGGGATCCCCAAGGAAGCCGGGCCTGCGATCGAGCGGCCCGGATATCAGCGAATTATCTGACTGACTGGACACTACGGCATGCAAAGCAAAACCACGAGACGATCTTTCGTCAAAGGCCTGGC (double strand) [copA2 (copAB2) promoter probe]
binds: all assays above

TGTAAAACGACGGCCAGTGGGTGGCGGTAATGAACAGGTGTTTCATGATGACTCCGGGAATACACAGCAGGATGAGGCCACATTAGCCGGGGGCGACTGGCAGCTACCTGACAGGCACATTACAACTTTGTCAGCTTGGGCGAGCGGGCACATCGTCACGTATCATTTCAGCCATCCCATTGCCCCTGTGCTAGCGGTAAGGCGGCGCCATAGGCTACGCACAATCTTTCAGAATATGGACAGCGCATGAAACTGCTGATCGTCGAAGACCAGGC (double strand) [copR1 (copRS1) promoter probe]
binds: all assays above
